This is an account of results in PMC6028238.

For experiment [1], the target named is human C4b-binding protein (C4BP), purified from plasma (human) (UniProt P04003). The experiment is described as follows: negative-stain electron microscopy.
The target of experiment [2] is protein H on the surface of S. pyogenes AP1 bacteria (Streptococcus pyogenes (endogenous in strain AP1)). The experiment is described as follows: electron microscopy with gold-labelled protein.
The target is the same in experiment [3]. The experiment is described as follows: flow cytometry on cells.

In experiment [1], “protein H (Streptococcus pyogenes), recombinant (natural protein)” had a percent of C4BP molecules complexed with protein H, with IgG of 83% and a percent of C4BP molecules complexed with protein H, without IgG of 7%.
With “human C4b-binding protein (C4BP), purified from plasma (from UniProt P04003 49-597; P20851 18-252) (complex)”, in experiment [2], the gold particles of C4BP bound to the surface, with IgG (gold particles/mm^2) amounted to 917 and the gold particles of C4BP bound to the surface, without IgG (gold particles/mm^2) amounted to 82.

B1: human C4BP in serum of human C4BP transgenic mice (natural protein)
chain: NCGPPPTLSFAAPMDITLTETRFKTGTTLKYTCLPGYVRSHSTQTLTCNSDGEWVYNTFCIYKRCRHPGELRNGQVEIKTDLSFGSQIEFSCSEGFFLIGSTTSRCEVQDRGVGWSHPLPQCEIVKCKPPPDIRNGRHSGEENFYAYGFSVTYSCDPRFSLLGHASISCTVENETIGVWRPSPPTCEKITCRKPDVSHGEMVSGFGPIYNYKDTIVFKCQKGFVLRGSSVIHCDADSKWNPSPPACEPNSCINLPDIPHASWETYPRPTKEDVYVVGTVLRYRCHPGYKPTTDEPTTVICQKNLRWTPYQGCEALCCPEPKLNNGEITQHRKSRPANHCVYFYGDEISFSCHETSRFSAICQGDGTWSPRTPSCGDICNFPPKIAHGHYKQSSSYSFFKEEIIYECDKGYILVGQAKLSCSYSHWSAPAPQCKALCRKPELVNGRLSVDKDQYVEPENVTIQCDSGYGVVGPQSITCSGNRTWYPEVPKCEWETPEGCEQVLTGKRLMQCLPNPEDVKMALEVYKLSLEIEQLELQRDSARQSTLDKEL
On to B1, for which, in experiment [3], the C4BP binding without IgG at 30 °C, as percent of the binding with IVIG is 40%; the C4BP binding without IgG at 39 °C, as percent of the binding with IVIG is under 10%; the fold increase of binding with 1 mg/ml IVIG against no IVIG turned out to be 2 fold.
